Assay results published in US20260242441A1.

Biological target: CD45 (PTPRC) phosphatase, endogenous, of Jurkat cells and human PBMC (human) (UniProt P08575)
Assay: cell-based or functional assay

Question: How did the expansion of CD4+CD25+CD127low/-Foxp3+ Treg cells in human PBMC MLR, with or without CD45 inhibitor turn out when “soluble recombinant human BTN2A2-Fc fusion protein (baculovirus / insect cell derived)” was run?
Answer: Its expansion of CD4+CD25+CD127low/-Foxp3+ Treg cells in human PBMC MLR, with or without CD45 inhibitor is 2 fold.
